The record followed here is the DeepSol protein solubility set.

This series is described as follows: soluble on expression in E. coli; label from the status in PepcDB or PDB records.
With “EKVDIDLRDQVSLQHGAQIFTNYCLSCHSASGMRFNRLKDIGLTDEEIKKNLMFTTDNVGDVMHSAMNPKDAAKWFGAAPPDLTLIARSKGADYLYAYMRGFYKDPTRPSGWNNTVFDKVGMPHPLWEQQGVQAVELDAKGQPVMVKDEHGEMKPKLYWESTGLHSRRLPNGKVIQKEYDAYVRDLVNYLVYMGEPAQLQRKR”, the “soluble on expression in E. coli” value is recorded as “not soluble”.
For “MGSDKIHHHHHHMYGKTELMMSNACGLDFGTSNSTVGWTRPGHPAALLPLEDGKLTLPSVIFFHAEDPLVSYGRAALDDYLAGYEGRLMRSLKSLLGTSMMEDSTEVMGQAMPFRKLLAHFIGELKARAERSAGTTFTRAVLGRPVFFIDEDPAADRLAEQTLAEIARDAGFRDIEFQYEPIAAAFDYEAKISDEELVLVVDIGGGTSDFSLVRLSPERAKRIDRREDILANGGVHIGGTDFDRALSLARAMPLLGLGSKLRSGKEMPSSQYFDLASWHTINLVYTRKAWSIVMDNYRDAADTVKLDRLIRLIRERAGHWLAIQMEAAKIALSGVDRTDVDLHRIEPELMLSITRDEFDESIGKLVAKTEKTVTDMLASAGVDGASVDTILFTGGSSSVPMLRHQLGQLLPRARRVEGDLFGGIGSGLALDAARKFG”, the “soluble on expression in E. coli” value is “not soluble”.
The same measure for “MAQNESPAEQLFAAIGLLRRHTRRRVGRPWPETPLTGSQVELVRLLRRRPGTSVAEAAAALGLAANTVSTLVRQLTDAGLVERVRDESDRRVARLALTDDARAQVERWRDRRNIEVAAAFDGLSAEDRKAIESAIPAITRLAGALHPDQAGPSDQEVVR”: “not soluble”; for “MLQVRVKPGVEDRIRGFFPWVYRSEIASFSRKPKKGEIVVVRDVNGKFLGYGYINPEVNIAIRILSFDKNEPVTPELIRKRIKQAYEYRKRLYINSNAYRLVHSEGDLLPGLIVDVYGSYLAVEFTTYGMNQFREVILDTLVELLRPKGIYEKVNEIAKRVEGLDVEERVIYGEVPEEVIIWEHDLKYYINIPQGQKTGFFLDQRNARKFVRNLVEPGDRCLDVFCHTGGFALNMKRAGAGEVIGVDISELALKEAEKNARLNGFTDIKWVKANAFDYLRELDKKGEKFDVIIIDPPSFAKNRAAVPNALRGYKELCVRGLKIAKSGGYLAIFSCSFHITEQHLLDVLLQASYDVRRQVRVIAKTFQDLDHPWILQMPNTLYLKGVWVEVV”: “soluble”.
Take “MSLSHYTVGELANHLGVTVRTLQYYDRKGLLTAERATESNRRYYNDDHIQQLQLIFLLKQFGCTLDEIKTLLYEDSDMQTLKAMLQLHKKKLETSIHDQTKALKHLNNVDQYISSHSSAPINHLSDIDKAVKQSTTLKSEGHHHHHH”: the “soluble on expression in E. coli” value was “not soluble”.
The same measure for “MGLVIYDTLARRKVPFEPAVPGHVGIYVCGPTVYADPHLGHARGPVVYDVLRRYLLHKGYKVRFVSNITDVGHLTDDADEGEDKIVRRAKLERLEPMEVAEKYTWSYFDAMQALNVLRPSIAPRASGHIPEMLELTERLLARGVAYERKGSVYFRVRSFPEYGKLSGKRLEELRAGARVEVREEKEDPLDFALWKAAEPGHIMRWKSPWGEGYPGWHIECTAMSLKYLGEGFDLHAGGIDLQFPHHECEIAQAEAAGFRFARHWMHHNHVLLEGEKMAKSTGNLVLLHDLLEAHEPMALRFYLLQTHYRSPMDFTWEGLESAKRGYGRLLHAYREVRGRKKTAPPGTTPELERALDALEKAFMEAIEDDLSTPEALAALFAFLPELHKLLPEAKAESLARAEAVFHTLGEGILGLFPERVLEERVSGPLLEGLIALLLELREEARRAKDYEKSDLIRERLRALGVIVEDTKEGPRWRLER”: “soluble”.
To “RVVTQNEIDRTIPVGAIMMWAADSLPSDAWRFCHGGTVSASDCPLYASRIGTRYGGSSSNPGLPDMRGLFVRGSGRGSHLTNPNVNGNDQFGKPRLGVGCTGGYVGEVQKQQMSYHKHAGGFGEYDDSGAFGNTRRSNFVGTRKGLDWDNRSYFTNDGYEIDPASQRNSRYTLNRPELIGNETRPWNISLNYIIKVKE” belongs “soluble”.
Consider “MRPPRPPRPPSPQRSAELRRRFAQEARSERPDLATLCLLVGAEADGTLDEAGLDAAQVELDRLAGELPFRPGTPRAWAVALRDLLGERYGFHGVAADYQRLESSLLHEVVRRRRGLPILLSVVWLEVARRAGAPVYGVALPGHFVVGFGGESAAASGPGSAPLGERVLVDPYDGGRLLSGTDAEALVAGATGAELRASMLEPAAPLDVVARVLNNIRAWAAARPEQSAVGLWAVELALLLPAHAARLRYERAVLLVQRGEFAAGAGELEAYAEVVEAVDEAVAEEVRGEARTARAMLN”, for which the “soluble on expression in E. coli” value was “not soluble”.
To “MQSSNGEHHQQKQTPYFMNAPCDPALLALAQQTFLGFQPQKNMYQHGFPPMLPHRNLIPSLAAAIPEMDKLMLEEPIEAGSMPYRRATNKNISVSDDSFNNMHRSSSSSQYRRHSAQWETMTDDERESVQRQKRKEEAFKTALCDAFKRSGSCPYGEACRFAHGENELRMPSQPRGKAHPKYKTQLCDKFSNFGQCPYGPRCQFIHKLKKGLPLSEYNRALQEGEISPARDDEITNPDESSSQVEDLSELHHRQHQQQQQYQQRYRRPPFNNFHDMSDSGYSAPRRRLHHQFEHLGSEQQQQQQQQTPAPKIVYPSMQVVNIEMATGDGPKRSDNHHYHHHHHQRRHIPAPPSTGPLSSLIDQADYEASMASGKMFGKPENIRTYGAMIRANEEHVERNQTGVVKKERATVLPKRDLSLIREEDTLLVDGSHLNMTSSAILPAHQIPSTTTTSTSSPVQEQPWYEKIFGKMTMIQEESSMGGEDDDAHEDHYSR” belongs “not soluble”.
The same measure for “MGSDKIHHHHHHMEYGHHARPDSKRPLDEGSPAAAGLTSKKANEALTRNRELTTVLVKNLPKSYNQNKVYKYFKHCGPIIHVDVADSLKKNFRFARIEFARYDGALAAITKTHKVVGQNEIIVSHLTECTLWMTNFPPSYTQRNIRDLLQDINVVALSIRLPSLRFNTSRRFAYIDVTSKEDARYCVEKLNGLKIEGYTLVTKVSNPLEKSKRTDSATLEGREIMIRNLSTELLDENLLRESFEGFGSIEKINIPAGQKEHSFNNCCAFMVFENKDSAERALQMNRSLLGNREISVSLADKKPFLERNEVKRLLASRNSKELETLICLFPLSDKVSPSLICQFLQEEIHINEKDIRKILLVSDFNGAIIIFRDSKFAAKMLMILNGSQFQGKVIRSGTINDMKRYYNNQQNHSMKHVKPSCINMMEKGPNLQVKKKIPDKQEQMSNDDFRKMFLGE”: “not soluble”.
As for “MGSDKIHHHHHHFRSFLMRDREKARKYVLKEIEKFGKRAFTWLFSDVVVEGSENIPKDRNFIVVANHQSLMDIPLILGFVATGAFIAKEELRKIPGVNWYIRYLNGVFLDRKNPRRAVRALREAIEKLKNGVTFIVFPEGTRSPDGKVLSFKKDSLMIAVKTGVPVLPVSIWGTYHLIPKGRWTFTPGKVFLKIHEPVDPKGFSSEEELRKYVEEVVKRGVEELKARWSK”, the “soluble on expression in E. coli” value was “not soluble”.
To “SAAGVPCALVTSCSSVFSGDQLVQHILGTEDLIVEVTSNDAVRFYPWTIDNKYYSADINLCVVPNKFLVTAEIAESVQAFVVYFDSTQKSGLDSVSSWLPLAKAWLPEVMILVCDRVSEDGINRQKAQEWCIKHGFELVELSPEELPEEDDDFPESTGVKRIVQALNANVWSNVVMKNDRNQGFSLLNSLTGTNHSIGSADPCHPEQPHLPAADSTESLSDHRGGASNTTDAQVDSIVDPMLDLDIQELASLTTGGGDVENFERLFSKLKEMKDKAATLPHEQRKVHAEKVAKAFWMAIGGDRDEIEGLSSDEEH” belongs “soluble”.
The same measure for “MEVAPEQPRWMAHPAVLNAQHPDSHHPGLAHNYMEPAQLLPPDEVDVFFNHLDSQGNPYYANPAHARARVSYSPAHARLTGGQMCRPHLLHSPGLPWLDGGKAALSAAAAHHHNPWTVSPFSKTPLHPSAAGGPGGPLSVYPGAGGGSGGGSGSSVASLTPTAAHSGSHLFGFPPTPPKEVSPDPSTTGAASPASSSAGGSAARGEDKDGVKYQVSLTESMKMESGSPLRPGLATMGTQPATHHPIPTYPSYVPAAAHDYSSGLFHPGGFLGGPASSFTPKQRSKARSCSEGRECVNCGATATPLWRRDGTGHYLCNACGLYHKMNGQNRPLIKPKRRLSAARRAGTCCANCQTTTTTLWRRNANGDPVCNACGLYYKLHNVNRPLTMKKEGIQTRNRKMSNKSKKSKKGAECFEELSKCMQEKSSPFSAAALAGHMAPVGHLPPFSHSGHILPTPTPIHPSSSLSFGHPHPSSMVTAMG”: “soluble”; for “MGSDKIHHHHHHESSFLNLSDPNYFTESNFWKDKADAESALAAAYSPIKGAMYGYFGAFDGWLNLNGRGDDIYTIKGEEVPMWNIANFLNSPSTGNDPYGALYSGIQRANIVLRYIDQIPASGITEEDRSMIKGEALFLRGYQYFLLVNNYKEVPLRLIPSNEDETNKAAATEAALWAQVEEDLDNAIKCNLPVERSTAKERITKGAAIAMLGKVYATQHKYPEAKQLLGTLLKAPYSYELMDNFEKNFTNEEEFNKESVFELAYSPDGDYSWSNESGICLGCYIPQFIGPVKSGGWAKLMPNSLIVGEFTKETRPSDADTKFDKRMYASLFFDAANYGDKVPNEKWYGNNYSMDDLWEGNEGKMAGGAPSFNVNGTAGKFLIKKNTAYYVDDKAPDNMGNKEGRSSNLRVMRFAEVLLLYAEACAKTNDPDGANYALKQIRQRAGLTEKTFAQAELMNEIEHQCLLEFFAEGHRFDDLKRWYSPSEIQLIFKANGKQGAENFQEKHLYYPIPTSELNNNTAMEQTSLWK”: “not soluble”; for “MLPLIYHSIYSRLELPEGHRYPIMKYQYLYEEVRRDVQAEWVQFFEPQALSIEAIKRVHDADYVDLLAQGNMPAAKMRRIGFPWSEALITRTLTSAAG”: “not soluble”.
The same measure for “MSTKSIATSSTASSSSSHHQEHTVTELIMFFTSEEPPEPEPFSRSTEKSGIRTSKVITRTITISAETKLKMDLLEEQRREKRVKLEIEKSRIRAENLQRMQEISSEPKTRGSKRSLMRRAAKRTKGRISSLLIRDSSVDSGSITDKALKDKKRGLSLEWEVKDQGRFAESFSDSRLMEMFQHPSGMPIEPDVMMEGYLYKRSSNAFKTWNRRWFQIKDKQLLYSHRSTDLEPATIMEENLRICLVRPAPSNIDRIGCFELVTPTRIHLLQADSESLCQDWMRALQRTILALHEGDSVDVASTSPRNKTTSMSSGVTLTSANAISPLSNAMDVTKGRSVSDPASTYTSANTSSISTAAGFSSSTTAFEQVRRVPGNEVCADCGSPAPKWVSINLGVVLCIECSGAHRSLGVQTSKVRSLCMDSIDNELRDVLLALGNRQVNEIFLAHLPPADSIVPPQINEKSARPAREAWIKAKYVERRFAVAEDTRARSSATNRQEHLKHKTSIGGNSSSNGVNRSSSYADVQDAESGGLLDADPWSADLSVPVPTASKRLSACGSDTNLDAIGSSSIDTKTVEWDSVKEACECGDLLALMTAYAQGFDLNALHNGTTALHIATRNGQTAAVEFLLLNGAKINMLDEKLNTPLHLAAKEGHTLPVCQLLKRGADSNLANVDSKTPLDIAMECTHADIVTLFRVTIMRNDFNADFNNPMDETVEAVISDIARRAATEKEQKKTESLKSTSDI”: “not soluble”.
Regarding “METEICEQLGDLHLDKEAILLRAEQIEQDIKARKYSVIPPLSDEEQNLLDAEIAKRAAPPPGVPDAADFPLHDIVKELGLDKPVDGTDPEFYEELKAKDANTVYKNMKDVPDSIAAKYLPDLARRFVEFERRVKRVERMLWALPREDRSLEEDRFEILTELLDKSCQGLEIWEEHCERKIPLGHRCVLEGELIHLITSKFDLIDKICGEFDKLKNKRSEVNDERDMLRYEIRHCDMIFTEIHEKFLKSYLEMDW”, the “soluble on expression in E. coli” value is “not soluble”.
